Results reported in patent US20110009597A1, “RECOMBINANT GANODERMA LUCIDIUM IMMUNOMODULATORY PROTEIN (rLZ-8) AND USES THEREOF” (priority 2008, published 2011).

Legend:
NB4 = test: PI single stained flow cytometry, apoptosis of NB4; type: cell-based
Method: Fluorescence microscope, model Leica ASLMD, K562, NB4. rLZ-8 is classified into high, medium and low three-dose groups respectively, now we prepare them with IMDM culture medium containing 2% FCS into the preparation of 2.5 μg·ml^−1, 0.5 μg/ml, 0.1 μg·ml^−1. […] (PI) 50 μg·ml ^−1.
Establish K562 as the normal control group, rLZ-8 low-dose group (0.1 μg·ml^−1), rLZ-8 medium dose group (0.5 μg·ml^−1), rLZ-8 high-dose group, (2.5 μg·ml^−1); set NB4 as the normal control group, rLZ-8 low-dose group (0.1 μg·ml^−1), rLZ-8 medium dose group (0.5 μg·ml^−1), rLZ-8 high-dose group, (2.5 μg·ml^−1).
Mix K562 and NB4 cells into 24-orifice plate respectively, and supply rLZ-8 in different concentrates, 1 ml/orifice, set 3-orifice multipunches for each group. Put them in 37° C., 5% CO2 incubator for 24 h, collect the cells of each concentrate, PBS washes twice and regulates the cell density to 1×10^6/ml, 70% ice ethanol fixation, adjusts to −20° C. and stays overnight. Wash the cells with PBS twice after fixing the cells, add PI (end density 50 μg·ml^−1) for room temperature and lucifuged hatching 10 min, 1000 r·min^−1 centrifuge 5 min, clear supernatant with disposable 400μ. IPBS re-suspension precipitation. And test on computer in 1 h.

[1] = tested on: systemic allergic reaction caused by BSA; test: Systemic allergic reaction in mice caused by BSA; conditions: for Death number/total / Sensitization number/total: sensitization BSA (i.p.)
Method: Prepare rLZ-8 700 μg/ml^−1 with saline and Aluminium hydroxide with PBS buffer. Male mice, 15 vial, were divided into 4 groups: two rLZ-8 dosage groups, positive group, normal control group. […] Positive reaction standard: tic or death. Negative reaction standard: normal.

[2] = tested on: mouse peritoneal H22 tumor cells; test: H22 ascites tumor inhibition experiment; type: in vivo, Mice
Method: Mouse hepatoma cell strain H22, offered by our laboratory.
(§1) Treatment after 24 h of vaccination. […] Daily weighing, observe the weight changes of mice, drawing weight growth curves.

S180 cells = test: Mouse transplanted S180 subcutaneous tumor inhibition; type: in vivo, Mice; conditions: 10 days
Method: Mice, 18-22 g, males and females were equally divided, provided by Jilin University Laboratory Animal Center; Mice Ehrlich ascites cells strain, provided by our laboratory S180; Cyclophosphamide (CTX), offered by Jiangsu Hengrui Medicine Co., Ltd., lot number: 06101921. S180 ascites tumors and solid tumors in experiment group were divided into normal control group, negative control group, positive control group, rLZ-8 low-dose treatment group (0.25 mg·kg^−1), rLZ-8 medium-dose treatment group (0.5 mg·kg^−1), rLZ-8 high-dose treatment group (1 mg·kg^−1). For each group 10 mice.
Select well-growing S180 cells, dilute appropriately with sterile saline into a tumor cell suspension, cell counts for 10^7·L^−1, under the right armpit of each mouse inoculated subcutaneously 0.2 ml (except for the normal control group). Treatment after 24 h of vaccination. Normal control group and negative control group were given saline 0.2 ml·each^−l·d^−1, intraperitoneal injection; positive control group were given cyclophosphamide 20 mg·kg^−1, intraperitoneal injection. rLZ-8 treatment groups were given doses of tail venous injection respectively, 0.2 ml·each^−1·d^−1, in 10 consecutive days. Draw blood from orbital venous plexus 10 days before and after medication respectively, sent to Jilin University No. 1 Hospital clinical laboratory to test and analyze the number of WBC. Kill all mice the next day of drug withdrawal at cervical dislocation, dissect anatomically and take out the tumors, weigh tumors, calculate the inhibition rate using the following equation:
Inhibition rate (%)=(average tumore weight of the control group−average tumore weight of the experiment group)/average tumor weight of the control group×100%

[3] = tested on: mouse peritoneal S180 tumor cells; test: S180 ascites tumor inhibition experiment; type: in vivo, Mice; conditions: rLZ-8 0.25-1 mg·kg^−1 tail venous injection, 10 days
Method: as §1

HL-60 = test: Annexin V-FITC flow cytometry, apoptosis of HL-60; type: cell-based; conditions: Annexin V/PI
Method: FACS Calibur flow cytometry, U.S. Becton-Dickinson.Coompany. NB4, HL-60. rLZ-8 is prepared with IMDM culture medium containing 2% FCS into the preparation of 0.1 μg·ml^−1, 0.5 μg·ml^−1, 2.5 μg·ml^−1, arsenic trioxide (As2O3) 0.5 μg·ml^−1 AnnexinV-FITC kit: combining buffer solution 4×; Propidium iodide solution (PI), 20 μg·ml−1, 0.2 ml; recombinant human Annexin V/FITC, 0.1 ml.
Establish NB4 normal control group, positive drug group (As2O3 0.5 μg·ml^−1), protein low-dose group (0.1 μg·ml^−1), medium-dose group (0.5 μg·ml^−1), high-dose group, (2.5 μg·ml^−1); establish HL-60 normal control group, protein low-dose group (0.1 μg·ml^−1), medium-dose group (0.5 μg·ml^−1), high-dose group, (2.5 μg·ml^−1).
Mix NB4 and HL-60 cell into 24-orifice plate respectively, 1 ml/hole supply rLZ-8 in different concentrates, set 3-orifice multipunches for each group. Put them in 37° C., 5% CO2 incubator for 24 h, collect the cells of each concentrate, washes the cells twice with pre-cooled PBS 4° C., with 250 μl binding buffer solution re-suspending cells and regulates the cell density to 1×10^6/ml, taking out 100 μl to 5 ml streaming tube, and add 5 μl Annexin V/FITC and 10 μl 20 μg·ml^−1 PI solution, after mixing put it in room temperature and lucifuged hatching 15 min, add 400 μl PBS by flow cytometry analysis.

[4] = rLZ-8 dose 2, shock BSA-rLZ-8 (i.v.)
[5] = rLZ-8 0.25 mg·kg^−1 tail venous injection
[6] = rLZ-8 0.5 mg·kg^−1 tail venous injection
[7] = rLZ-8 1 mg·kg^−1 tail venous injection

B1: rLZ-8: Recombinant Ganoderma Lucidum Immune Regulatory Protein expressed in Pichia pastoris (protein, UniProt P14945 2-111, looked up)
Immunomodulatory protein Ling …: SDTALIFRLAWDVKKLSFDYTPNWGRGNPNNFIDTVTFPKVLTDKAYTYRVAVSGRNLGVKPSYAVESDGSQKVNFLEYNSGYGIADTNTIQVFVVDPDTNNDFIIAQWN
Apoptosis rate (NB4; NB4, rLZ-8 0.1 μg·ml^−1, 24 h): 9.23% | Apoptosis rate (NB4; NB4, rLZ-8 0.5 μg·ml^−1, 24 h): 27.51% | Apoptosis rate (NB4; NB4, rLZ-8 2.5 μg·ml^−1, 24 h): 38.60% | systemic allergic reaction caused by BSA (in words) ([1]; mouse, in vivo): could inhibit systemic allergic reaction | Death number/total ([1]; rLZ-8 dose 1, shock BSA (i.v.)): 0/10 | Sensitization number/total ([1]; rLZ-8 dose 1, shock BSA (i.v.)): 5/10 | Death number/total [1, 4]: 0/10 | Sensitization number/total [1, 4]: 9/10 | growth of peritoneal H22 tumor cells (body weight curve) ([2]; rLZ-8 0.25-1 mg·kg^−1 tail venous injection, 10 days): inhibited the mouse peritoneal H22 tumor cells growth | survival of H22 ascites mice ([2]; rLZ-8 groups vs negative control group): survive longer than the negative control group | Inhibition rate (%) (S180 cells; [5]): 16.8% | Tumor weight (S180 cells; [5]): 0.84 ± 0.03 g | Inhibition rate (%) (S180 cells; [6]): 25.7% | Tumor weight (S180 cells; [6]): 0.75 ± 0.02 g | Inhibition rate (%) (S180 cells; [7]): 45.5% | Tumor weight (S180 cells; [7]): 0.55 ± 0.03 g | growth of peritoneal S180 tumor cells (body weight curve) [3]: inhibited mouse peritoneal S180 tumor cells growth | Apoptosis rate (HL-60; HL-60, rLZ-8 0.1 μg·ml−1, 24 h): 30.5% | Apoptosis rate (HL-60; HL-60, rLZ-8 0.5 μg·ml−1, 24 h): 40.7% | Apoptosis rate (HL-60; HL-60, rLZ-8 2.5 μg·ml−1, 24 h): 47.7%
